This is an account of results in article PMC10250246 (Nucleic Acids Research, 2023).

Experiment [1] deals with T1, 10xHis-mRuby2-Spt6 (239-1451) (S. cerevisiae, UniProt P23615 239-1451).
T1 sequence (looked up): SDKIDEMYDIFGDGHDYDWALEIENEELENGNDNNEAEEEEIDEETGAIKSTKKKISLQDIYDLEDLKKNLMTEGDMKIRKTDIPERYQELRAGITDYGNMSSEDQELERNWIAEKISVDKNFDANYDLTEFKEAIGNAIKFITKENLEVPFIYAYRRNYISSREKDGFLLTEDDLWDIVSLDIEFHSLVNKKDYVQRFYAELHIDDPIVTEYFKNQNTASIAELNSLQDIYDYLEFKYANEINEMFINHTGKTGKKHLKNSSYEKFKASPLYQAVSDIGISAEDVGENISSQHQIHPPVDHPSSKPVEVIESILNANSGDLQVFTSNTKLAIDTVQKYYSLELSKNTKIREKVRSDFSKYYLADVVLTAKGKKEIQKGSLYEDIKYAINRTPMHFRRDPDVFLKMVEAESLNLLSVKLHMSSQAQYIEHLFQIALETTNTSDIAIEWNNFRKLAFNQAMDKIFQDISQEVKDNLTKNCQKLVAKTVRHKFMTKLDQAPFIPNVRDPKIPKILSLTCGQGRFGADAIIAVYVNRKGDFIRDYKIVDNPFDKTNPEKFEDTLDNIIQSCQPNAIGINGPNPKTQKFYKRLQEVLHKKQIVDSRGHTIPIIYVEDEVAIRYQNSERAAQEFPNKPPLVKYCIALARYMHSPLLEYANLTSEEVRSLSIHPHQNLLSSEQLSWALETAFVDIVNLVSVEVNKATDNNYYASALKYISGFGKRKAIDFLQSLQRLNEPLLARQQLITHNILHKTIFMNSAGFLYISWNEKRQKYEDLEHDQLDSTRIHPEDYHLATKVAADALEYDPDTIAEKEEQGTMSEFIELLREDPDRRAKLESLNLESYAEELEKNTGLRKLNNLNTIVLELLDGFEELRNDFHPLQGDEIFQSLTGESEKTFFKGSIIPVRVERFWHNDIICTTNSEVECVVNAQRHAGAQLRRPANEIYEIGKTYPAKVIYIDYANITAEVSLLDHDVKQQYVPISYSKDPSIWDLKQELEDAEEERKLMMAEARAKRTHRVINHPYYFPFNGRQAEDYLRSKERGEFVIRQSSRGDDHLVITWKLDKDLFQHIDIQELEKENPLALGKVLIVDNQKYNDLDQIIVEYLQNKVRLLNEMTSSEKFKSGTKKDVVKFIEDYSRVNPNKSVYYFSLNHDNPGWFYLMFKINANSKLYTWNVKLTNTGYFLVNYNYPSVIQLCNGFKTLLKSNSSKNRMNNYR
Description: native gel or EMSA. A general note: A gel shift assay detects complexes by their altered migration in electrophoresis.

The target of another experiment is T2, Spt6 (239-1451) (S. cerevisiae, UniProt P23615 239-1451).
T2 sequence (looked up): T1 sequence (looked up)
Briefly: fluorescence polarisation.

Positions count from the first letter of the chain named. Names may count otherwise.

B1: 10xHis-mClover-Cdc73 (natural protein, S. cerevisiae, UniProt Q06697 1-393, looked up)
chain: MANSLDRLREHLKNGDKLVLKNNEGQSTDDITKATMVETLSSDGSTQDSFPLNEETEIEIDGSLVQLRIIVHCWMNKDSSAADYLADCQNKQLTNVSFLQRTDLINWLSGNTESSQYLKAPGQKGETSDKVDIENKTLAGELSTVKSTTSASLENDSEVSDPVVVETMKHERILVDHNSALRGAKPINFGYLIKDAELKLVQSIKGSLRGSKLPPGHKGAHGRISKTNGSSGGPRKDPIILIPSAASSILTVANIKQFLLESKYVNPRNLPSVPNGLVNIEKNFERISRPIRFIIVDNTRMFTKPEYWDRVVAIFTTGHTWQFNNYQWNSPQELFQRCKGYYFHFAGDSVPQHVQQWNVEKVELDKNKRFKDVEVVRYFWHSLEKELISRGYR
Usually Kd stands for a measure of binding affinity in units of concentration. A high value points to a looser complex. For the molecule B1, the Kd was around 320 nM in experiment [1] and 770 nM in the experiment with Spt6 (239-1451).

B2: 10xHis-mClover-Cdc73 W321A (natural protein, S. cerevisiae, UniProt Q06697 1-393, looked up)
chain: B1 chain with W321A
With B2, the binding result in experiment [1] is recorded as “binds”.
